Results on two substances are retold here after paper PMC3041752.

Some results are limits rather than exact numbers.

Experiment [1] concerns the target human Proliferating Cell Nuclear Antigen (PCNA) (human). Put plainly: SEC-MALS; gel filtration coupled to multi-angle light scattering; 3 or 0.3 mg/ml (~100 or 10 µM) in 20 mM sodium phosphate, 150 mM NaCl, 0.03% (w/v) sodium azide, pH 7.0. Background: SEC sorts molecules by how far they enter the pores of the column.
Experiment [2] has the same target. Put plainly: AUC; sedimentation velocity, 100 µM protein (monomer concentration); trimer to monomers.
In experiment [3] the target is budding yeast Proliferating Cell Nuclear Antigen (PCNA) (budding yeast). Put plainly: SEC-MALS; gel filtration coupled to multi-angle light scattering; 3 or 0.3 mg/ml (~100 or 10 µM) in 20 mM sodium phosphate, 150 mM NaCl, 0.03% (w/v) sodium azide, pH 7.0.
Experiment [4] has the same target. Put plainly: AUC; sedimentation velocity, 100 µM protein (monomer concentration); trimer to monomers.

As a reminder, the stoichiometry N is a count of units in the complex or per binding partner. With “human Proliferating Cell Nuclear Antigen (PCNA) (natural protein)”, in experiment [1], the population of species with the molecular weight of a dimer of trimers is under 4% and the stoichiometry N stood at 3. In experiment [2], this substance yielded a population of monomers in equilibrium with the trimer of under 3% and a stoichiometry N of 3.

Consider “budding yeast Proliferating Cell Nuclear Antigen (PCNA) (natural protein)”, for which, in experiment [3], the population of species with the molecular weight of a dimer of trimers was under 4% and the stoichiometry N came to 3. In experiment [4], this substance came in with a population of monomers in equilibrium with the trimer of under 3% and a stoichiometry N of 3.
